The text below walks through data of patent US12624075B2, “Immune inducer” (TORAY INDUSTRIES, INC., priority 2015, dated 2026).

The series relates to U251 cells. Description: Cytotoxicity assay (chromium 51 release) of induced HLA-A0201-positive CD8-positive T cells against U251 cells. The format is cell-based, human. As to conditions: 5×10^4 T cells with 1×10^3 U251 cells, 4 hours; FIG. 4A; higher/lower = SEQ ID NOs: 3 to 19 versus SEQ ID NOs: 75 to 83 and full-length PDS5A protein. An excerpt: Subsequently, the following were examined: whether or not the polypeptides having the amino acid sequences represented by SEQ ID NOs: 3 to 19, which are used in the present invention, are presented on the HLA-A0201 molecules on tumor cells which are HLA-A0201-positive and which express human PDS5A protein; whether or not the CD8-positive T cells stimulated with the polypeptides according to the present invention can damage the tumor cells which are HLA-A0201-positive and which express the human PDS5A protein; and further, whether or not the above described CD8-positive T cells have a markedly higher ability to damage the tumor cells as compared to the CD8-positive T cells stimulated with the known peptides (SEQ ID NOs: 75 to 83) and those stimulated with the PDS5A protein.
Each of the total 10 types of cell lines whose expression of human PDS5A protein has been confirmed, namely: a human glioma (malignant brain tumor) cell line U251 cells; a leukemia cell line Jurkat cells; a liver cancer cell line SK-Hep1; a breast cancer cell line MCF7; a pancreatic cancer cell line Panc1; an ovarian cancer cell line OVCAR3; a renal cancer cell line A498; a colorectal cancer cell line HCT116; a stomach cancer cell line KATO3; and a lung cancer cell line NCI-H522 (purchased from ATCC); were collected into a 50 mL centrifugal tube, in an amount of 1×10^6 cells each. […]

B1: full-length PDS5A protein: human PDS5A protein of 1337 amino acid residues, prepared according to Example 5 in WO 2011/027807; Comparative Example (protein, listed as Homo sapiens)
chain: MDFTAQPKPATALCGVVSADGKIAYPPGVKEITDKITTDEMIKRLKMVVKTFMDMDQDSEDEKQQYLPLALHLASEFFLRNPNKDVRLLVACCLADIFRIYAPEAPYTSHDKLKDIFLFITRQLKGLEDTKSPQFNRYFYLLENLAWVKSYNICFELEDCNEIFIQLFRTLFSVINNSHNKKVQMHMLDLMSSIIMEGDGVTQELLDSILINLIPAHKNLNKQSFDLAKVLLKRTVQTIEACIANFFNQVLVLGRSSVSDLSEHVFDLIQELFAIDPHLLLSVMPQLEFKLKSNDGEERLAVVRLLAKLFGSKDSDLATQNRPLWQCFLGRFNDIHVPVRLESVKFASHCLMNHPDLAKDLTEYLKVRSHDPEEAIRHDVIVTIITAAKRDLALVNDQLLGFVRERTLDKRWRVRKEAMMGLAQLYKKYCLHGEAGKEAAEKVSWIKDKLLHIYYQNSIDDKLLVEKIFAQYLVPHNLETEERMKCLYYLYASLDPNAVKALNEMWKCQNMLRSHVRELLDLHKQPTSEANCSAMFGKLMTIAKNLPDPGKAQDFVKKFNQVLGDDEKLRSQLELLISPTCSCKQADICVREIARKLANPKQPTNPFLEMVKFLLERIAPVHIDSEAISALVKLMNKSIEGTADDEEEGVSPDTAIRSGLELLKVLSFTHPTSFHSAETYESLLQCLRMEDDKVAEAAIQIFRNTGHKIETDLPQIRSTLIPILHQKAKRGTPHQAKQAVHCIHAIFTNKEVQLAQIFEPLSRSLNADVPEQLITPLVSLGHISMLAPDQFASPMKSVVANFIVKDLLMNDRSTGEKNGKLWSPDEEVSPEVLAKVQAIKLLVRWLLGMKNNQSKSANSTLRLLSAMLVSEGDLTEQKRISKSDMSRLRLAAGSAIMKLAQEPCYHEIITPEQFQLCALVINDECYQVRQIFAQKLHKALVKLLLPLEYMAIFALCAKDPVKERRAHARQCLLKNISIRREYIKQNPMATEKLLSLLPEYVVPYMIHLLAHDPDFTRSQDVDQLRDIKECLWFMLEVLMTKNENNSHAFMKKMAENIKLTRDAQSPDESKTNEKLYTVCDVALCVINSKSALCNADSPKDPVLPMKFFTQPEKDFCNDKSYISEETRVLLLTGKPKPAGVLGAVNKPLSATGRKPYVRSTGTETGSNINVNSELNPSTGNRSREQSSEAAETGVSENEENPVRIISVTPVKNIDPVKNKEINSDQATQGNISSDRGKKRTVTAAGAENIQQKTDEKVDESGPPAPSKPRRGRRPKSESQGNATKNDDLNKPINKGRKRAAVGQESPGGLEAGNAKAPKLQDLAKKAAPAERQIDLQR
Regarding B1, the cytotoxic activity entry was “markedly lower cytotoxic activity”.
